In assay [1] the target is human ephrin type-A receptor 2 (EphA2), ectopically expressed on CHO cells (Homo sapiens, UniProt P29317). Briefly: flow cytometry on cells. In general terms: A flow cytometer gives signals particle by particle.
Assay [2] addresses Lgr5 (control), ectopically expressed on CHO cells (Homo sapiens (assumed), UniProt O75473). As to the kind of experiment: flow cytometry on cells.

The source of these data is PMC4256486 (Molecular & Cellular Proteomics : MCP, 2014).

Lgr5 (control), ectopically expressed on CHO cells, sequence (O75473 22-907): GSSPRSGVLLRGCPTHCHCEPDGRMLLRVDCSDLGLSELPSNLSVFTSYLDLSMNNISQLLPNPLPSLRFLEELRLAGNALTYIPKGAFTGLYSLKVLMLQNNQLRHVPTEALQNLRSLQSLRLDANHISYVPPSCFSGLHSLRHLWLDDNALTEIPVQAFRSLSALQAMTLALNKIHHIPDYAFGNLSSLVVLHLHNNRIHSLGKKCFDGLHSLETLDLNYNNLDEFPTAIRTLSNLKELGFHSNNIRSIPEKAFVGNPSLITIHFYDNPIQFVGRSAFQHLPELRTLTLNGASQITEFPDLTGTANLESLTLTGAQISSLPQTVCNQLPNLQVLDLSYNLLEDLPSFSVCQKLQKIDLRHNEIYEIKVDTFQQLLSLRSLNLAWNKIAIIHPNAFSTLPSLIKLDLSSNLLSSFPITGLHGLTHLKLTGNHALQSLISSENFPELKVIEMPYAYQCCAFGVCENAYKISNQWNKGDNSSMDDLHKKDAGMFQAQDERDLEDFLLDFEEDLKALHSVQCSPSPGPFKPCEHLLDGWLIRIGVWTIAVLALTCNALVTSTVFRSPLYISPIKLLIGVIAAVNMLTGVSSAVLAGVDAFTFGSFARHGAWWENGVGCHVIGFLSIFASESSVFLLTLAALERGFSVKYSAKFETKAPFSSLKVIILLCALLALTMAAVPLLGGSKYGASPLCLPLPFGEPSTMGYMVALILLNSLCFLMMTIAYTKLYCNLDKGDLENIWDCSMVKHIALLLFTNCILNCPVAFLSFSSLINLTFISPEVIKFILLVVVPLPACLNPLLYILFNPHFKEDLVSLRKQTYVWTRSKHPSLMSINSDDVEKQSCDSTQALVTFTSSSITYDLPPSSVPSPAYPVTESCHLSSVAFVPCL
human ephrin type-A receptor 2 (EphA2), ectopically expressed on CHO cells, sequence (P29317 24-976): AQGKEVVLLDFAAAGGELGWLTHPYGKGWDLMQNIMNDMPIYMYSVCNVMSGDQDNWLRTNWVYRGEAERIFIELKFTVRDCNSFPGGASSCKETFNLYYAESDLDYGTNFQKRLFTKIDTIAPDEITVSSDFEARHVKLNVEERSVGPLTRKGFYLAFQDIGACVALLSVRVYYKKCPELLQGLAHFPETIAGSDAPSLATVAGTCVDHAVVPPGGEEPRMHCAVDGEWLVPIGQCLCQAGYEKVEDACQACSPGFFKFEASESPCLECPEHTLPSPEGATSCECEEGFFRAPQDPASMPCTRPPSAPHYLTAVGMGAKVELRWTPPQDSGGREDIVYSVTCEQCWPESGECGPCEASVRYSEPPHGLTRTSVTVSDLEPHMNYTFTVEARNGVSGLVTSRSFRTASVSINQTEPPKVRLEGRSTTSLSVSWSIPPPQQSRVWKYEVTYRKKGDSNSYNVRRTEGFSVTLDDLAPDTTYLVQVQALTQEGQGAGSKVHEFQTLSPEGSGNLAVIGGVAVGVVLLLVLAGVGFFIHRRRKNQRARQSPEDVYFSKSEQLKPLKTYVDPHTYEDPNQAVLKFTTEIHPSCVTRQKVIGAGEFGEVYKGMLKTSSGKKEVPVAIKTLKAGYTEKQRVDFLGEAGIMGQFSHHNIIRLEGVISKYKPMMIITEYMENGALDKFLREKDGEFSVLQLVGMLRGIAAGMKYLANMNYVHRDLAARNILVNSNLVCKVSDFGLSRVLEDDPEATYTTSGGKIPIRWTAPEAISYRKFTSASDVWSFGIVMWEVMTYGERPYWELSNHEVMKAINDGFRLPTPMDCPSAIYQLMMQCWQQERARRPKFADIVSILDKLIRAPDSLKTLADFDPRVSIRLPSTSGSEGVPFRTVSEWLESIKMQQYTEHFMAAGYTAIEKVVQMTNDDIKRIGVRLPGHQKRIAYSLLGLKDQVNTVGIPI

B1: IgG HCA-F1 (antibody, V domains shown)
VH: QVQLQESGGGLVQPGGSLRLSCAASGFTFSSYSMNWVRQAPGKGLEWVSYISSSSSTIYYADSVKGRFTISRDNAKNSLYLQMNSLRAEDTAVYYCARYRLPDFWSGYPNYGMDVWGQGTTVTVSS
VL: QSVLTQPPSVSGAPGQRVTISCTGSSSNIGAGYDVHWYQQLPGTAPKLLIYGNSNRPSGVPDRFSGSKSGTSASLAITGLQAEDEADYYCQSYDSSLSGHVVFGGGTKLTVL
Consider B1, for which the binding result in assay [1] is “binds”; in assay [2] it was “no binding”.
